Assay results as given in article PMC6892545.

Biological target: Ulp1^403-621-C580S, on CNBr-activated resin (S. cerevisiae) (UniProt Q02724)
Assay: pull-down; Ulp1^403-621-C580S on CNBr-activated resin incubated with yeast whole cell extract, 2 h at 4 °C, PBSN buffer; anti-Smt3 Western blot

UniProt Q02724, sequence (Q02724 403-621 C580S): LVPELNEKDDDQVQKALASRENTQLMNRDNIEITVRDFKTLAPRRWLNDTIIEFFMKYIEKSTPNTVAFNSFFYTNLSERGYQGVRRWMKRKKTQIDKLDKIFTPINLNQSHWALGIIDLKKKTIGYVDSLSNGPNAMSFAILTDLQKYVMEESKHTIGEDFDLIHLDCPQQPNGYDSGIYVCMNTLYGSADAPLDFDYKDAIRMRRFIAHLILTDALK

percent of SUMO conjugates recovered on the resin: 50%
Substance: Smt3 (yeast SUMO), as endogenous SUMO conjugates in yeast cell extract (from UniProt Q12306 1-101) (natural protein)
